To fix the notation:
B1: human RANKL ectodomain (residues 158-317), wild type [human] / mouse RANK extracellular domain [mouse] (parent complex)
chain 1: SKLEAQPFAHLTINATDIPSGSHKVSLSSWYHDRGWAKISNMTFSNGKLIVNQDGFYYLYANICFRHHETSGDLATEYLQLMVYVTKTSIKIPSSHTLMKGGSTKYWSGNSEFHFYSINVGGFFKLRSGEEISIEVSNPSLLDPDQDATYFGAFKVRDID
chain 2: VTPPCTQERHYEHLGRCCSRCEPGKYLSSKCTPTSDSVCLPCGPDEYLDTWNEEDKCLLHKVCDAGKALVAVDPGNHTAPRRCACTAGYHWNSDCECCRRNTECAPGFGAQHPLQLNKDTVCTPCLLGFFSDVFSSTDKCKPWTNCTLLGKLEAHQGTTESDVVCSSSMTLRRPPKEAQAYLPS

This test covers variants of B1. Briefly: SPR (Biacore, chelating NTA sensor chip); hRANKL or mutant injected at 0, 0.47, 0.94, 1.88, 3.75, 7.5, 15 and 30 nM; parent: 0.156 nM.
Regarding chain 1 D143A, the Kd (commonly the concentration at which binding is half-saturated) turned out to be 2.15 nM.
On to chain 1 R66A, chain 1 D143A, for which the Kd came to 39.4 nM.
On to chain 1 R66A, for which the dissociation constant (Kd) turned out to be 10.7 nM.

The record behind these values is article PMC4585926, “A RANKL mutant used as an inter-species vaccine for efficient immunotherapy of osteoporosis” (Scientific Reports, 2015).
